Format: physicochemical
Conditions: n = 3

## AgTx2: scorpion toxin that binds in the external pore region of K+ channels
  partitioning into LUVs: did not partition

— article PMC9191634 (Proceedings of the National Academy of Sciences of the …, 2022)
